Among the data in article PMC10043283, “Neuraminidase 1 promotes renal fibrosis development in male mice” (Nature Communications, 2023) are Kd values, retold here.

The target of this assay is T1, Human NEU1 recombinant protein (human, UniProt Q99519 48-415).
T1 construct: human neuraminidase 1 (NEU1), recombinant; Amine-coupled to a CM5 chip; also called recombinant human NEU1; source: recombinant protein, gifted by Dr. Xiao Yibei lab
The assay can be described thus: SPR; Biacore T200, 25 °C, HBS-EP+ pH 7.4; human NEU1 amine-coupled to CM5 chip (8000–10,000 RU); ALK5 recombinant proteins flowed at 7.80–500 nM; 1:1 binding model. Particulars: both partners purified.

B1: human ALK5_(162-403aa) recombinant protein (domain or fragment, UniProt P36897 162-403, looked up)
chain: EDPSLDRPFISEGTTLKDLIYDMTTSGSGSGLPLLVQRTIARTIVLQESIGKGRFGEVWRGKWRGEEVAVKIFSSREERSWFREAEIYQTVMLRHENILGFIAADNKDNGTWTQLWLVSDYHEHGSLFDYLNRYTVTVEGMIKLALSTASGLAHLHMEIVGTQGKPAIAHRDLKSKNILVKKNGTCCIADLGLAVRHDSATDTIDIAPNHRVGTKRYMAPEVLDDSINMKHFESFKRADIYA
notes: human ALK5 (TGFβ type I receptor), amino acids 162-403; also called amino acid 162–403 region of ALK5; source: bought: Sino Biological Inc
With B1, the Kd stood at 3.14 nM.

The Kd is the constant that tells how readily two partners part at equilibrium.
